Assay results: PMC7493027, “Mps1 dimerization and multisite interactions with Ndc80 complex enable responsive spindle assembly checkpoint signaling” (Journal of Molecular Cell Biology, 2020)

How the values were obtained:
GST-Nuf2^1–169 = target: T1, GST-Nuf2^1–169 (UniProt Q9BZD4 1-169); test: pull-down; GST-Hec1^1–196, GST-Hec1^1–196-9D or GST-Nuf2^1–169 on agarose beads as affinity matrices; MBP-tagged Mps1 truncations purified from E. coli; SDS-PAGE and anti-MBP blot; conditions: both partners purified
T1 construct: Nuf2 (nuclear filament-containing protein 2), residues 1-169, with the calponin-homology domain
T1 sequence (looked up): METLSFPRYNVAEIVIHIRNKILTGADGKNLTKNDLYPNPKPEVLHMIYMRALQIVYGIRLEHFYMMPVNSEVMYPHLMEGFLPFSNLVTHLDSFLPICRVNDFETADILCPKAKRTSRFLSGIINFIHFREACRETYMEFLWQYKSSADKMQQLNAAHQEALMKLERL

GST-Hec1^1–196 = target: T2, GST-Hec1^1–196 (UniProt O14777 1-196); test: as above; conditions: both partners purified
T2 construct: Hec1 (highly expressed in cancer 1)
T2 sequence (looked up): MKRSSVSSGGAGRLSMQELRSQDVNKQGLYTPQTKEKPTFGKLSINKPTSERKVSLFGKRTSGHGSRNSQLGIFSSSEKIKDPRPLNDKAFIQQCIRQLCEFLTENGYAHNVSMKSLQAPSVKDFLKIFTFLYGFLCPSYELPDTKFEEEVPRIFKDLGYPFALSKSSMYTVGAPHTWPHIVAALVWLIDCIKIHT

[1] = target: the molecule itself; test: pull-down; GST-Mps1^C342-WT, GST-Mps1^C342-KD or GST-Mps1^PK-KD on agarose beads; purified 6× His-tagged Mps1^C342-WT or -KD; SDS-PAGE and anti-6× His blot (Figure 3C, Supplementary Figure S4E)

B1: MBP-tagged Mps1 C-terminal extension (CTE, amino acids 193–300) (domain or fragment, human, UniProt P33981 193-300, looked up)
chain: QLLSEEEKKNLSASTVLTAQESFSGSLGHLQNRNNSCDSRGQTTKARFLYGENMPPQDAEIGYRNSLRQTNKTKQSCPFGRVPVNLLNSPDCDVKTDDSVVPCFMKRQ
notes: Mps1, human, C-terminal extension of N300, amino acids 193-300; source: Escherichia coli, purified
binding result (GST-Nuf2^1–169): binds | binding result (GST-Hec1^1–196): binds

B2: MBP-tagged Mps1 tetratricopeptide repeat domain (TPR, amino acids 62–192) (domain or fragment, human, UniProt P33981 62-192, looked up)
chain: PEDWLSLLLKLEKNSVPLSDALLNKLIGRYSQAIEALPPDKYGQNESFARIQVRFAELKAIQEPDDARDYFQMARANCKKFAFVHISFAQFELSQGNVKKSKQLLQKAVERGAVPLEMLEIALRNLNLQKK
notes: Mps1, human, tetratricopeptide repeat domain, amino acids 62-192; also called Mps1^TPR; source: Escherichia coli, purified
binding result (GST-Nuf2^1–169): binds | binding result (GST-Hec1^1–196): binds

B3: Mps1^C342-WT fragment (amino acids 516–857), GST-tagged or 6× His-tagged (domain or fragment, human, UniProt P33981 516-857, looked up)
chain: ECISVKGRIYSILKQIGSGGSSKVFQVLNEKKQIYAIKYVNLEEADNQTLDSYRNEIAYLNKLQQHSDKIIRLYDYEITDQYIYMVMECGNIDLNSWLKKKKSIDPWERKSYWKNMLEAVHTIHQHGIVHSDLKPANFLIVDGMLKLIDFGIANQMQPDTTSVVKDSQVGTVNYMPPEAIKDMSSSRENGKSKSKISPKSDVWSLGCILYYMTYGKTPFQQIINQISKLHAIIDPNHEIEFPDIPEKDLQDVLKCCLKRDPKQRISIPELLAHPYVQIQTHPVNQMAKGTTEEMKYVLGQLVGLNSPNSILKAAKTLYEHYSGGESHNSSSSKTFEKKRGKK
notes: Mps1, human, amino acids 516-857: protein kinase domain (516-792) and C-tail (793-857); Two differently tagged copies of one fragment: the GST copy was the bait on beads, the 6× His copy the prey; each chain bears only one of the two tags; also called GST-Mps1^C342-WT; 6× His-Mps1^C342-WT; source: recombinant, purified
binding result [1]: binds
